According to article PMC9637899:
Changes are numbered by the printed parent chain. In names and notes the source's numbering stands.

Target: T1, ElpQ_(181–343)
T1 chain: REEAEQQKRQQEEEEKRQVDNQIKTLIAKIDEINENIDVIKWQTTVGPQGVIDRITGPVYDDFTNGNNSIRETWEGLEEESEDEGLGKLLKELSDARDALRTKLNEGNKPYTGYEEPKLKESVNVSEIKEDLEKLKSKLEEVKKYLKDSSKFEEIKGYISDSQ
Assay: SPR
Settings: chain shown with the change; steady-state response at the highest analyte concentration plotted (about 5e-7 M on the x axis); ElpQ181-343 immobilized, C1s construct injected; parent: est. 140; read off a plot

B1: activated C1s–CCP1–CCP2–SP, P09871 E326A; D358A; K575A; R576A; R581A; K583A (protein)
chain: EPTMYGEILSPNYPQAYPSEVEKSWDIEVPEGYGIHLYFTHLDIELSENCAYDSVQIISGDTEEGRLCGQRSSNNPHSPIVEEFQVPYNKLQVIFKSDFSNEERFTGFAAYYVATDINECTDFVDVPCSHFCNNFIGGYFCSCPPEYFLHDDMKNCGVNCSGDVFTALIGEIASPNYPKPYPENSRCEYQIRLEKGFQVVVTLRREDFDVEAADSAGNCLDSLVFVAGDRQFGPYCGHGFPGPLNIETKSNALDIIFQTDLTGQKKGWKLRYHGDPMPCPKEDTPNSVWEPAKAKYVFRDVVQITCLDGFAVVEGRVGATSFYSTCQSNGKWSNSKLKCQPVACGIPESIENGKVEDPESTLFGSVIRYTCEEPYYYMENGGGGEYHCAGNGSWVNEVLGPELPKCVPVCGVPREPFEEKQRIIGGSDADIKNFPWQVFFDNPWAGGALINEYWVLTAAHVVEGNREPTMYVGSTSVQTSRLAKSKMLTPEHVFIHPGWKLLEVPEGRTNFDNDIALVRLKDPVKMGPTVSPICLPGTSSDYNLMDGDLGLISGWGRTEAADRAVALAAARLPVAPLRKCKEVKVEKPTADAEAYVFTPNMICAGGEKGMDSCKGDSGGAFAVQDPNDKTKFYAAGLVSWGPQCGTYGLYTRVKNYVDWIMKTMQENSTPRED
response: 0 RU

B2: activated C1s–CCP1–CCP2–SP, P09871 K575A; R576A; R581A; K583A (protein)
chain: B1 chain with A311E, A343D
response: 8 RU
